Test results: publication PMC10958042

B1: ATGL (PNPLA2, patatin-like phospholipase domain-containing protein 2), human, full length / G0S2 (G0/G1 switch protein 2), human (parent)
chain 1: MFPREKTWNISFAGCGFLGVYYVGVASCLREHAPFLVANATHIYGASAGALTATALVTGVCLGEAGAKFIEVSKEARKRFLGPLHPSFNLVKIIRSFLLKVLPADSHEHASGRLGISLTRVSDGENVIISHFNSKDELIQANVCSGFIPVYCGLIPPSLQGVRYVDGGISDNLPLYELKNTITVSPFSGESDICPQDSSTNIHELRVTNTSIQFNLRNLYRLSKALFPPEPLVLREMCKQGYRDGLRFLQRNGLLNRPNPLLALPPARPHGPEDKDQAVESAQAEDYSQLPGEDHILEHLPARLNEALLEACVEPTDLLTTLSNMLPVRLATAMMVPYTLPLESALSFTIRLLEWLPDVPEDIRWMKEQTGSICQYLVMRAKRKLGRHLPSRLPEQVELRRVQSLPSVPLSCAAYREALPGWMRNNLSLGDALAKWEECQRQLLLGLFCTNVAFPPEALRMRAPADPAPAPADPASPQHQLAGPAPLLSTPAPEARPVIGALGL
chain 2: METVQELIPLAKEMMAQKRKGKMVKLYVLGSVLALFGVVLGLMETVCSPFTAARRLRDQEAAVAELQAALERQALQKQALQEKGKQQDTVLGGRALSNRQHAS
B2: ATGL (PNPLA2, patatin-like phospholipase domain-containing protein 2), human, full length / perilipin-5, mouse (mPlin5) (parent)
chain 1: B1 chain 1
chain 2: MDQRGEDTTLAPHSRMSGDQTAQDPGSSLGELDQQNVVNRVVALPLVKATCTAVSSAYNSAKDRHPLLGSACRLAEHCVCSVTTCALDHAQPLLEHLQPQLATVNDLACRGLDKLEEKLPFLQQPSDMVVTSAKDTVAKSVTGMVDLAQRGRRWSGELRRSMSQAMDMVLGKSEKLVDRFLPMTEAELAVLAAEAEGPEVGTVEEQRQQQGYFVRLGSLSARLRHLAYEHSLGKLRQSKHRTQEMLAQLQETLELIQHMQRGASPSPTFHPPKTQELWGSWSPCLENGRSHSEVELETLALSRSLTLELQNAVDALAGCVRGLPPSAQAKVAEVQRSVDALQATFADAHCLGDVAPTALAEGRGSVARAHACVDEFLDLVLRAMPLPWLVGPFAPILVEQSEPLINLATCVDEVVGDPDPRWAHMDWPAQKRAWEAESADPGGQEAEPPRGQGKHTMMPELDF

Variants of: B1
Experiment: LUMIER: Protein A-ATGL variant and firefly luciferase-partner co-expressed in HEK293T, lysates immunoprecipitated on IgG-coated plates, co-precipitated partner measured as luciferase luminescence
Conditions: with G0S2 (G0/G1 switch protein 2), transient co-transfection, IgG-coated LUMITRAC plates, 2 h at 4 °C, three PBS washes, Bright-Glo luciferase reagent, triplicates per assay, two …, parent: 0.26, not graded, scale: log2 fold change of co-immunoprecipitated luminescence relative to wild-type ATGL within each experiment

Row | Variant | screen value
1 | chain 1 G189E | -2.28
2 | chain 1 L102K | -2.65
3 | chain 1 L261E | -0.622
4 | chain 1 K275A | -0.535
5 | chain 1 E125L | -0.308
6 | chain 1 R95K | 0.105
7 | chain 1 R95L | -0.0587
8 | chain 1 A434L | 0.461
9 | chain 1 F35E | -0.0735
10 | chain 1 F35A | -0.163
11 | chain 1 P103K | -0.0704
12 | chain 1 K92L | 0.251

Same assay, conditions: with G0S2 (G0/G1 switch protein 2), transient co-transfection, IgG-coated LUMITRAC plates, 2 h at 4 °C, three PBS washes, Bright-Glo luciferase reagent, triplicates per assay, two …, parent: 0.56, not graded, scale: log2 fold change of co-immunoprecipitated luminescence relative to wild-type ATGL within each experiment

Row | Variant | screen value
13 | chain 1 G189E | -2.66
14 | chain 1 L102K | -2.45
15 | chain 1 L261E | -0.673
16 | chain 1 K275A | -0.748
17 | chain 1 E125L | -0.181
18 | chain 1 R95K | 0.0501
19 | chain 1 R95L | -0.569
20 | chain 1 A434L | -0.0543
21 | chain 1 F35E | 0.169
22 | chain 1 F35A | -0.133
23 | chain 1 P103K | 6.88e-05
24 | chain 1 K92L | -0.642

Variants of: B2
Experiment: as above
Conditions: with perilipin-5, mouse (mPlin5), transient co-transfection, IgG-coated LUMITRAC plates, 2 h at 4 °C, three PBS washes, Bright-Glo luciferase reagent, triplicates per assay, two …, parent: 0.15, not graded, scale: log2 fold change of co-immunoprecipitated luminescence relative to wild-type ATGL within each experiment

Row | Variant | screen value
25 | chain 1 P258L | -0.695
26 | chain 1 F35E | -0.313
27 | chain 1 F35A | -0.563
28 | chain 1 H109E | 0.319
29 | chain 1 E314A | 0.0215
30 | chain 1 L62A | -0.2
31 | chain 1 L62K | -0.0604
32 | chain 1 K92L | 0.0605
33 | chain 1 E368A | -0.0206
34 | chain 1 Y415A | 0.184
35 | chain 1 R351L | -0.213
36 | chain 1 S158E | -0.0461
37 | chain 1 S158A | -0.0252
38 | chain 1 S87E | -0.403
39 | chain 1 S87A | -0.249
40 | chain 1 G189E | -1.35
41 | chain 1 I70A | -1.37
42 | chain 1 I70K | -0.962
43 | chain 1 R329E | 0.105
44 | chain 1 R113L | -0.305
45 | chain 1 R113K | 0.649
46 | chain 1 L102K | -0.208
47 | chain 1 T41A | 0.0372

Row | Variant | screen value
48 | chain 1 P103K | -0.303
49 | chain 1 N39E | -0.463
50 | chain 1 N180L | -0.751
51 | chain 1 E125L | 0.00114
52 | chain 1 A434L | 0.18
53 | chain 1 V127L | -0.294
54 | chain 1 F348E | 0.152
55 | chain 1 S106K | -0.363
56 | chain 1 G16K | 0.284
57 | chain 1 Q140K | 0.011
58 | chain 1 Q140A | -0.185
59 | chain 1 G66L | -0.614
60 | chain 1 G66A | -0.448
61 | chain 1 L261E | -0.706
62 | chain 1 V328A | -0.912
63 | chain 1 A104E | -0.161
64 | chain 1 G59L | -0.841
65 | chain 1 P156K | -0.669
66 | chain 1 G153A | -0.676
67 | chain 1 G153K | -1.05
68 | chain 1 K275A | -0.0642
69 | chain 1 A453E | 0.182
70 | chain 1 P86K | -1.17

Same assay, conditions: with perilipin-5, mouse (mPlin5), transient co-transfection, IgG-coated LUMITRAC plates, 2 h at 4 °C, three PBS washes, Bright-Glo luciferase reagent, triplicates per assay, two …, parent: 0.46, not graded, scale: log2 fold change of co-immunoprecipitated luminescence relative to wild-type ATGL within each experiment

Row | Variant | screen value
71 | chain 1 P258L | -1.24
72 | chain 1 F35E | -0.0352
73 | chain 1 F35A | -0.0452
74 | chain 1 H109E | -0.248
75 | chain 1 E314A | 0.421
76 | chain 1 L62A | -0.0199
77 | chain 1 L62K | 0.482
78 | chain 1 K92L | 0.185
79 | chain 1 E368A | -0.0325
80 | chain 1 Y415A | 0.247
81 | chain 1 R351L | -0.456
82 | chain 1 S158E | 0.172
83 | chain 1 S158A | 0.0162
84 | chain 1 S87E | -0.318
85 | chain 1 S87A | -0.228
86 | chain 1 I70A | -0.876
87 | chain 1 I70K | -0.924
88 | chain 1 R329E | -0.51
89 | chain 1 R113L | 0.191
90 | chain 1 R113K | 0.667
91 | chain 1 L102K | -0.846
92 | chain 1 T41A | 0.0895
93 | chain 1 P103K | -0.674

Row | Variant | screen value
94 | chain 1 N39E | -0.463
95 | chain 1 N180L | -0.918
96 | chain 1 E125L | -0.226
97 | chain 1 A434L | 0.786
98 | chain 1 V127L | -0.0973
99 | chain 1 F348E | -0.58
100 | chain 1 S106K | -0.539
101 | chain 1 G16K | 0.354
102 | chain 1 Q140K | -0.224
103 | chain 1 Q140A | -0.0429
104 | chain 1 G66L | -0.664
105 | chain 1 G66A | 0.0231
106 | chain 1 L261E | -0.846
107 | chain 1 V328A | -0.985
108 | chain 1 A104E | -0.459
109 | chain 1 G59L | -0.187
110 | chain 1 P156K | -1.08
111 | chain 1 G153A | -0.506
112 | chain 1 G153K | -0.867
113 | chain 1 K275A | -0.483
114 | chain 1 A453E | 0.52
115 | chain 1 P86K | -1.16

Same assay, conditions: with perilipin-5, mouse (mPlin5), transient co-transfection, IgG-coated LUMITRAC plates, 2 h at 4 °C, three PBS washes, Bright-Glo luciferase reagent, triplicates per assay, two …, parent: 0.46, not graded, value at the no-binding floor (a bound), scale: log2 fold change of co-immunoprecipitated luminescence relative to wild-type ATGL within each experiment

Row | Variant | screen value
116 | chain 1 G189E | -1.51
